According to patent US20260001914A1, “MACROCYCLIC PEPTIDES TARGETING KRAS” (Merck Sharp & Dohme LLC, priority 2022, published 2026):

How the values were obtained:
[1] = biological target: Biotin-labeled KRAS-G12D protein (UniProt P01116-2 1-169, limits assumed, biotin label (site not stated); loaded with BODIPY-GDP); experiment: cell-based or functional assay
[2] = biological target: KRAS-G12D in AsPC-1 cells (UniProt P01116); experiment: cell-based or functional assay

| SOS assay EC50 [1] [nM] | AlphaScreen @18 h, EC50 [2] [nM] | Substance |
| --- | --- | --- |
| 36 | 7300 | cyclo(FLac-NMeA-3Pal-Nle-Phe2F-Nle-NMe3Pal-amBCP) (peptide) |
| 72.4 | 589 | cyclo(FLac-NMeA-4F3Pal-Nle-Phe2F-Nle-NMeF-amBCP) (peptide) |
| 758 | > 50800 | cyclo(FLac-NMeNvalmid-3Pal-Nle-Phe2F-Nle-NMe3Pal-c3amCblc) (peptide) |
| 4.13 | 285 | cyclo(FLac-NMeA-PyrimAla-cPeA-Phe2F-hL-NMeF-amBCP) (peptide) |
| 26 | 1230 | cyclo(FLac-NMeNvaF-PyrimAla-cPrA-Phe2F-hL-NMeF-amBCP) (peptide) |
| 4410 | > 50800 | cyclo(F-R-3Pal-cBuA-NvaOMe-Nle-NMeF-aMeC1-C1Ac (peptide) |
| 2.39 | 542 | cyclo(FLac-NMeA-PyrimAla-cBuA-Phe2F-Nle3F2-NMeF-amBCP) (peptide) |
| 114 | 7730 | cyclo(FLac-NMeA-PyrimAla-Leu3F-Phe2F-hL-NMeF-amBCP) (peptide) |
| 17.4 | 590 | cyclo(FLac-NMeA-PyrimAla-Nle-Phe2F-Nle-NMeF-amBCP) (peptide) |
| 87.6 | 3950 | cyclo(FLac-NMeDabN3-3Pal-Nle-Phe2F-Nle-NMe3Pal-amBCP) (peptide) |
| 1.7 | 128 | cyclo(CPhe-NMeA-PyrimAla-cPrA-Phe2F-Nle3F2-NMeF-MeOximamBCP) isomer 2 (peptide) |
| 494 | > 50800 | cyclo(FLac-NMeNvalmid-PyrimAla-Nle-Phe2F-Nle-NMeF-amBCP) isomer 1 (peptide) |
| 1.95 | 168 | cyclo(FLac-NMeA-PyrimAla-cPrA-Phe2F-hL-NMeF-amBCP) (peptide) |
| 10.1 | 2330 | cyclo(FLac-NMeA-PyrimAla-Nle-Phe2F-NleF-NMeF-amBCP) (peptide) |
| 17.3 | > 50800 | cyclo(dF-R-Phe4Gn-Nle-TyrOMe-Nle-NMeF-c3amCblc) (peptide) |
| 7.87 | 1110 | cyclo(FLac-NMeA-PyrimAla-Nle-Phe2F-hL-NMeF-amBCP) (peptide) |
| 27.2 | > 50800 | cyclo(FLac-NMeNvalmid-PyrimAla-Nle-Phe2F-Nle-NMe3Pal-amBCP) (peptide) |
| 1780 | > 50800 | cyclo(4F3Pal-NMeA-3Pal-Nle-Phe2F-Nle-NMe3Pal-amBCP) (peptide) |
| 2890 | > 50800 | cyclo(4Me3Pal-NMeA-3Pal-Nle-Phe2F-Nle-NMe3Pal-amBCP) (peptide) |
| 12.8 | > 50800 | cyclo(F-R-3Pal-Nle-Phe2F-Nle-NMeF-aMeC1-C1Ac) (peptide) |
| 3060 | 21700 | cyclo(FLac-NMeNle-3Pal-DabN3-Phe2F-Nle-NMe3Pal-amBCP) (peptide) |
| 1460 | > 50800 | cyclo(INal-R-Phe4CH2NH2-Nle-Y-Nle-NMeF-daMeC-C1Ac) (peptide) |
| 7.79 | 2260 | cyclo(FLac-NMeA-PyrimAla-NvaF-Phe2F-hL-NMeF-amBCP) (peptide) |
| 4 | 437 | cyclo(FLac-NMeA-PyrimAla-cBuA-Phe2F-hcPrA-NMeF-amBCP) (peptide) |

| SOS assay EC50 [1] [nM] | AlphaScreen @18 h, EC50 [2] [nM] | Substance |
| --- | --- | --- |
| 51 | 3400 | cyclo(CPhe-NMeA-PyrimAla-cPrA-Phe2F-Nle3F2-NMeF-MeOximamBCP) isomer 1 (peptide) |
| 3750 | > 50800 | cyclo(FLac-AlaCN-3Pal-Nle-Phe2F-Nle-NMe3Pal-amBCP) (peptide) |
| 2.17 | 4650 | cyclo(FLac-NMeA-3Pal-Nle-Phe2F-hL-NMe3Pal-amBCP) (peptide) |
| 22.3 | 17400 | cyclo(FLac-NMeA-PyrimAla-cPeA-Phe2F-Nle-NMe3Pal-amBCP) (peptide) |
| 28.9 | 5160 | cyclo(FLac-NMeNvalmid-3Pal-Nle-Phe2F-Nle-NMeF-amBCP) (peptide) |
| 590 | 11200 | cyclo(FLac-NMeA-PyrimAla-Nle-Phe2F-Nlecalken3Pal-amBCP) (peptide) |
| 22.3 | 32300 | cyclo(Phe3Me-NMeA-3Pal-Nle-Phe2F-Nle-NMe3Pal-amBCP) (peptide) |
| 19.1 | 223 | cyclo(FLac-NMeA-PyrimAla-Nle-Phe2F-Nle-NMePhe4Me-amBCP) (peptide) |
| 4.38 | > 50800 | cyclo(FLac-NMeA-PyrimAla-L-Phe2F-Nle-NMe3Pal-amBCP) (peptide) |
| 1.87 | 674 | cyclo(FLac-NMeA-PyrimAla-cBuA-Phe2F-hL3F-NMeF-amBCP) (peptide) |
| 228 | > 50800 | cyclo(FLac-NMeA-PyrimAla-hL-Phe2F-Nle-NMe3Pal-amBCP) (peptide) |
| 297 | 20700 | cyclo(FLac-NMeNvaF-3Pal-Nle-Phe2F-Nle-NMe3Pal-amBCP) (peptide) |
| 440 | 46400 | cyclo(Y-NMeA-3Pal-Nle-Phe2F-Nle-NMe3Pal-amBCP) (peptide) |
| 91.1 | 37200 | cyclo(Phe4Me-NMeA-3Pal-Nle-Phe2F-Nle-NMe3Pal-amBCP) (peptide) |
| 25.3 | 11100 | cyclo(FLac-NMeNvalmid-PyrimAla-Nle-Phe2F-Nle-NMeF-amBCP) isomer 2 (peptide) |
| 6560 | > 50800 | cyclo(F-DabN3~3Pal-cBuA-V-Nle-NMe3Pal-amBCP) (peptide) |
| 99.9 | 42800 | cyclo(Phe4F-NMeA-3Pal-Nle-Phe2F-Nle-NMe3Pal-amBCP) (peptide) |
| 37.4 | 3720 | cyclo(FLac-NMeA-PyrimAla-NleF-Phe2F-NleF-NMeF-amBCP) (peptide) |
| 2.43 | 2030 | cyclo(FLac-NMeA-PyrimAla-NleF-Phe2F-Nle-NMeF-amBCP) (peptide) |
| 2120 | > 50800 | cyclo(1Nal-R-K-Nle-Phe3COOH-Nle-NMeF-Cysteamine-C1Ac) (peptide) |
| 12.5 | 994 | cyclo(FLac-NMeA-PyrimAla-Nle-Phe2F-Nle-NMePhe4F-amBCP) (peptide) |
| 2 | 615 | cyclo(FLac-NMeA-PyrimAla-cPrA-Phe2F-hcPrA-NMeF-amBCP) (peptide) |
| 3880 | > 50800 | cyclo(F-NMeDabN3-3Pal-NleLac-Phe2F-Nle-NMe3Pal-amBCP) (peptide) |
